Results as given in patent US20250092124A1 (YUNNAN BAIYAO GROUP, published 2025).
Numbering of substitutions follows the chain as printed.

Tests used:
[1] = molecular target: T1, GDF15-HIS (ACROBiosystems, CAT #: GD5-H5149) (human, UniProt Q99988 197-308); experiment: ELISA in stability test, antibody after pH 3.6 for 2-4 h; coated antigen not named
T1 construct: Bought protein; also called GDF15 (ACROBiosystems, GD5-H5149); human GDF15; not shown: His tag
T1 sequence (looked up): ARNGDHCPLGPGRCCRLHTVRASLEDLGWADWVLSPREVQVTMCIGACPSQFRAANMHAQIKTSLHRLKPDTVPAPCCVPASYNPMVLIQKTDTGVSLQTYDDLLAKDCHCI
Protocol: An appropriate amount of each antibody was taken and adjusted to 5 mg/mL in storage buffer adjusted to pH 3.6 using an ultrafiltration tube. The antibodies were placed at room temperature for 2-4 hours, then protein aggregation was detected using SEC-HPLC, and protein binding activity change was detected by ELISA.

[2] = molecular target: T2, GDF15-mFC protein (human; mouse, UniProt Q99988 197-308); experiment: blocking ELISA as in Example 4, GFRAL-hIgG1 Fc coated (competitor), GDF15-mFC mixed with antibody
T2 construct: extracellular domain;domain: IgG2a-FC; also called GDF15-mFc fusion protein
T2 sequence (looked up): T1 sequence (looked up)
Protocol: A fusion protein comprising the extracellular region of GFRAL protein (Genbank accession number NM_207410.2) and human IgG1-FC (Genbank accession number CAC20454.1) was diluted to […] with coating solution, followed by adding to ELISA plate at 50 μl/well and incubating at 4° C. overnight. The solution in the wells was discarded and the plate was washed 3 times with washing solution, each time for 3-5 minutes, and dried via tapping. 200 μl of blocking solution was added to each well followed by incubating at 4° C. overnight. The plate was washed 3 times with washing solution, and the coated plate may be stored at −20° C. or 4° C. for future use.
The antibodies to be tested, positive control antibody AV380-mIgG1 and blank control (PBS) were added to the wells. […] At the same time, GDF15-mFC protein (GDF15: Genbank accession number NM_004864.3; mFC: Genbank accession number AAH31470.1) was added at 20 ng/well and mixed with the antibodies to be tested. The wells were incubated at 37° C. for 1 hour, washed, and dried via tapping. Then the enzyme-labeled secondary antibody, horseradish peroxidase-labeled goat anti-mouse IgG (SIGMA, catalog number A9044-2 ml) was added to each well, at a dilution of 1:10000, 50-100 μl/well. The wells were incubated at 37° C. for 2 hours, washed, and dried via tapping. 100 μl of freshly prepared developing solution TMB was added to each well and incubated at 37° C. for 30 minutes. 2 mol/L H₂SO₄ was added to terminate the reaction, and the OD value was obtained on an enzyme-linked immunosorbent reader.
(§1) The experiment was performed as detailed in Example 4, except that the antibodies to be tested (the humanized antibodies), negative control antibody (hIgG1), and positive control antibodies Ponsegromab and AV380-hIgG1 were added to each well of the coated plate.

[3] = molecular target: T3, cynoGDF15-mFC (monkey (cyno); mouse, UniProt G7PWZ3 197-308); experiment: ELISA, cynoGDF15-mFC coated
T3 construct: also called monkey GDF15 (cynoGDF15)
T3 sequence (looked up): T1 sequence (looked up) with H6R, R21H, A54E, T63M, S64N, I112V
Protocol: as §1, with “2,” for “4,”, “that the coating protein was cynoGDF15-mFC (GDF15: Genbank accession number EHH29815.1; mFC: Genbank accession number AAH31470.1), and” for “that”

[4] = molecular target: T1, GDF15-HIS (ACROBiosystems, CAT #: …); experiment: ELISA in stability test, antibody before treatment; coated antigen not named; before treatment (unstressed antibody, 10 mg/mL)
[5] = molecular target: T1, GDF15-HIS (ACROBiosystems, CAT #: …); experiment: ELISA on human GDF15, antibody after 2 weeks at 37 °C in PBS; PBS, 37 C for 2 weeks (not plasma)
Protocol: (§2) […] of the antibodies to be tested (final concentration 1 mg/ml) were added to 200 μl of plasma and PBS, respectively, tightly sealed and placed at 37° C. for 2 weeks. The change of protein binding activity was detected by ELISA.

[6] = molecular target: T1, GDF15-HIS (ACROBiosystems, CAT #: …); experiment: ELISA on human GDF15, antibody after 2 weeks at 37 °C in plasma
Protocol: as §2

[7] = molecular target: T1, GDF15-HIS (ACROBiosystems, CAT #: …); experiment: ELISA in stability test, antibody after 5 freeze-thaw cycles; coated antigen not named
Protocol: An appropriate amount of each antibody was taken and adjusted to 10 mg/mL, followed by freezing at −80° C. for 10 min, and placing in an ice-water mixture to slowly thaw. The above procedure was repeated 5 times. Protein aggregation was detected using SEC-HPLC, and protein binding activity change was detected by ELISA.

[8] = molecular target: T2, GDF15-mFC protein; experiment: competitive ELISA, GFRAL-HIS coated (competitor), GDF15-mFc 0.3 µg/ml pre-incubated with antibody
Protocol: GFRAL-HIS protein (ACROBiosystems, GFA-H52H3) was dissolved in PBS at a concentration of […] and was used to coat ELISA 96-well plate one day before blocking the plate with 2% BSA in PBS. 53E5 (hz), and control antibodies Ponsegromab and AV380-hIgG1 were 3.16-fold diluted for 10 gradients with a starting concentration of 20 μg/ml. At the same time, GDF15-mFc protein was added at a final concentration of 0.3 μg/ml. After incubation at room temperature for 1 hour, the mixtures were added to 96-well plate coated with GFRAL-HIS. After incubated at room temperature for 1 hour, the plate was washed and then HRP-anti-mouse IgG was added to the plate. After incubation at room temperature for 1 hour, the HRP enzyme activity (OD450) was detected. The HRP enzyme activity represents the relative amount of GDF15-mFc protein bound to GFRAL. The OD450 values and antibody concentrations were plotted. The dose-effect curve was fitted using the log (agonist) vs. response-variable slope (four-parameter) Logistic model to calculate IC50.

B1: 53E5(hz) (antibody, human IgG1, kappa, V domains shown)
VH: QVQLQESGPGLVKPSETLSLTCTFSGFSLSTSGMGVGWIRQPPGKGLEWLAHILWDDVKRYNPALKSRLTISKDSSKSQISLKLSSVTAADTAVYYCVQMAWDWFAYWGQGTTVTVSS
VL: DIQMTQSPSSLSASVGDRVTITCKASQNVDTNVAWYQQKPGQSPKALIYSASYRSSGVPSRFSGSGSGTDFTLTISSLQPEDFATYYCQQYHSYPTFGQGTRLEIKR
notes: also called S3E5 (hz); humanized antibody 53E5
B1 showed an EC50 [1] of 0.0699 µg/mL, an IC50 [2] of 0.253 µg/mL and an OD450.Max [2] of 1.05 OD450. It also gave an EC50 [3] of 0.0816 µg/mL, an OD450.Max [3] of 1.03 OD450 and an EC50 [4] of 0.0588 µg/mL. For the same binder, the EC50 [5] was 0.127 µg/mL, the EC50 [6] was 0.0372 µg/mL and the EC50 [7] was 0.0648 µg/mL. It also gave an IC50 [8] of 0.253 µg/mL.
